Laboratory results as given in publication PMC12584617.

System: T1, NsrX (Alr1976) (Anabaena sp. strain PCC 7120), ORF:44a8eb4f
T1 sequence: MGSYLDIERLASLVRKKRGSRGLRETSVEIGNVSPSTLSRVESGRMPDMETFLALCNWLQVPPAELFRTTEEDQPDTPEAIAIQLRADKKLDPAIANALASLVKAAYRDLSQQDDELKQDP
Experiment: EMSA
Conditions: 10 mM Bis-Tris-HCl pH 7.5, 40 mM KCl, 0.1 mg/mL BSA, 5% glycerol, 50 ng DNA, 50-100 ng ifpkn22 competitor, 30 min room temperature; NsrX +100 uM MnCl2 (also in …)

## CATCTTGGAAACCAAGTTGCACAAACATCAGTAAGACAATAAAAGCAATGCCAGCTACAGCTATAAGAAAACGAATTTTCTGTTGGACTAGCTGTAGCCATGCTAAAGGAATTTTAAAATTCATATTGATTTTGTCAGTTGACAGTTGATAGTTGATAGTTGTCAGTTGACTAATGACAATTAAATTTGAATCGCTACATCAACTTGTAAGTTGGTCAAACGTCCTACCCGTTCGCTATCTGCG (double strand) [PhgdC]
  binding: binds

## GGCGTGTGGCTCTTGTTCTAGTAGTACAGCCACCTTAAAGATAGCGATTGAATCCAGATTACGCGATCGCATCAACCCCAGCCTAGTAGTAGAAGCAGTTTAGTTAACAGTTAACAGTAAACCGTTAACTAACACCCAAAAGAACTTTCACAACTACATAACGAACCCATCATGAACACTAATTCTACTGGTTTTTCTGTGGAGCGATCGCCCCCTCTTCGGCGACGTTCTACAAACCCCTCACAGCCATAGCTCAACAGGCGTGAGATCCAAACACAAAGACCGACCAACTAACCAACC (double strand) [PnifHDK]
  binding: binds
